{
  "source": "patent US6103872A",
  "about": "“CAPON: a protein associated with neuronal nitric oxide synthase” (The Johns Hopkins University, priority 1998, dated 2000)",
  "molecules": {"B1": {"name": "125 amino acid C-terminal fragment of CAPON: Gal4 activation domain fusion of the last 125 amino acids of CAPON (protein)", "chain": "SGALPVLCESTTPKPEDLHSPLLGAGLADFAHPVGSPLGRRDCLVKLECFRFLPAEDNQPMAQGEPLLGGLELIKFRESGIASEYESNTDESEERDSWSQEELPRLLNVLQRQELGDSLDDEIAV"}, "B2": {"name": "GST-CAPON: GST fusion protein consisting of CAPON amino acids 379-503 (C-terminal 125 amino acids) (protein)", "chain": "B1 chain"}},
  "key": {"nNOS/PSD95 interaction": {"system": "nNOS/PSD95 interaction", "test": "Coimmunoprecipitation of myc-PSD95 with HA-nNOS in transfected HEK293 cells", "type": "cell-based", "details": "cotransfection of full-length CAPON expression plasmid", "source_text": "FIG. 6. CAPON expression prevents the interaction of PSD95 and nNOS. HEK293 cells were transfected with various combinations of expression plasmids for HA-tagged nNOS (HA-NOS), myc-tagged PSD95, or CAPON. Following transfection, the lysates were immunoprecipitated with an anti-HA antibody and bound proteins were detected with the appropriate antibodies. Following cotransfection of HA-NOS and myc-PSD95, myc-PSD95 is detected in anti-HA immunoprecipitates. […] In the absence of HA-nNOS transfection, neither myc-PSD95 or CAPON is immunoprecipitated by anti-HA antibodies.\nWe wanted to determine if CAPON and PSD95 compete for binding to nNOS in intact cells. Accordingly, we transfected HEK-293 cells with various mixtures of expression plasmids containing cDNAs of hemagglutinin antigen (HA)-tagged nNOS, myc-tagged PSD95 and/or full-length CAPON. Following immunoprecipitation with antibodies to HA, we examined which proteins coprecipitated. In cells expressing HA-nNOS and myc-PSD95, antibodies to HA coprecipitate myc-PSD95 (FIG. 6). When various amounts of CAPON cDNA containing expression plasmids are also transfected, HA-immunoprecipitatescontain CAPON but substantially less PSD95."}, "nNOS [1]": {"target": "T1, nNOS (Rattus norvegicus, UniProt P29476)", "test": "nNOS catalytic activity", "type": "biochemical", "details": "data not shown"}, "nNOS [2]": {"system": "nNOS", "test": "Yeast two-hybrid interaction with nNOS (2-377)", "type": "cell-based, rat", "source_text": "(§1) FIGS. 1A-1C. Cloning of the CAPON cDNA and distribution of CAPON mRNA. […] Yeast were transformed with the indicated Gal4 activation domain (AD) and Gal4 DNA-binding domain (BD) plasmids and grown on plates […] histidine. A typical filter lift is shown in which b-galactosidase activity was detected by the appearance of a blue precipitate. pAD-CAPON1, comprising the last 125 amino acids of CAPON, activates lacZ transcription in the presence of pBD-nNOS (2-377) but not with plasmids the first three PDZ domains of PSD95 (amino acids 20-364) or the second PDZ domain of PSD93 (amino acids 116-421).\nWe conducted a yeast two-hybrid screen employing the first 377 amino acids of nNOS, a region which includes the PDZ domain that comprises the first 100 amino acids of nNOS. […]\nTwo-hybrid screens and the construction of the parent vectors pPC86, containing the GAL4-activation domain, and pPC97, containing the GAL4-DNA binding domain, have been described (Jaffrey and Snyder, 1996). Plasmid pBD-NOS(2-377) was prepared by the insertion of an nNOS PCR product corresponding to amino acids 2-377 of rat nNOS into the Sal I and Bgl II sites of pPC97, resulting in an open reading frame encoding a GAL4 BD-NOS fusion protein (Jaffrey and Snyder, 1996). […]"}, "PSD93": {"system": "PSD93", "test": "Yeast two-hybrid interaction with PSD93 second PDZ domain (amino acids 116-421)", "type": "cell-based", "source_text": "as §1\n(§2) We conducted a yeast two-hybrid screen employing the first 377 amino acids of nNOS, a region which includes the PDZ domain that comprises the first 100 amino acids of nNOS. […] The CAPON two-hybrid clones share a common carboxyl terminus and are predicted to translate into 125 and 327 amino acid peptides followed by a stop codon. […] Moreover, nNOS fails to interact with another control protein, c-fos. To obtain a full-length CAPON cDNA, we screened a rat brain cDNA library with the larger two-hybrid clone and isolated a 2100 bp cDNA which overlapped with the two-hybrid clone and was used to assemble a final 2820 bp cDNA (see Methods). The conceptual translation of this cDNA produces a 503 amino acid protein (FIG. 1B SEQ ID NO:4). […]"}, "PSD95": {"system": "PSD95", "test": "Yeast two-hybrid interaction with PSD95 PDZ domains (amino acids 20-364)", "type": "cell-based", "source_text": "as §1, §2"}, "eNOS": {"system": "eNOS", "test": "GST-fusion protein binding assay with lysates of transfected HEK293 cells, eNOS", "details": "Western blot", "method": "(§3) (FIG. 2A) CAPON binds to nNOS, but not eNOS or iNOS. Bacterially expressed GST, GST-PIN, and GST-CAPON were bound to glutathione agarose and then incubated with lysates of HEK293 cells transfected with expression plasmids for the indicated isoforms of NOS. After extensive washing of the resins, bound NOS was detected with isoform specific antibodies. […] Input=10% of starting material applied to each resin.\n(§4) To assess the specificity of interactions between CAPON and nNOS, we evaluated the binding of a GST-CAPON fusion protein, consisting of C-terminal 125 amino acids of CAPON, with nNOS, eNOS and inducible NOS (iNOS) (FIG. 2A). Lysates of HEK-293 cells transfected with expression plasmids for each of the three forms of NOS were incubated with GST-CAPON. […] No interactions are evident with the GST control. […]\n(§5) The material remaining on the resin was eluted with SDS-PAGE sample buffer and nNOS was detected by immunoblot using antibodies specific to each NOS isoform (Transduction Labs). […]"}, "iNOS": {"system": "iNOS", "test": "GST-fusion protein binding assay with lysates of transfected HEK293 cells, iNOS", "details": "Western blot", "method": "as §3, §4, §5"}, "nNOS [3]": {"target": "T1, nNOS", "test": "GST-fusion protein binding assay with lysates of transfected HEK293 cells, nNOS", "set-up": "expressed in transfected cells; host or cells: HEK293", "details": "Western blot", "method": "as §3\n(FIG. 4B) The C-terminal 13 amino acids of CAPON are sufficient for binding to nNOS. Various GST-CAPON fusion proteins were incubated with HEK293 lysates containing nNOS. A CAPON fusion protein comprising the last 100 amino acids binds nNOS, as do fusion proteins comprising the last 13 or 20 amino acids of CAPON.\nas §4, §5"}},
  "data": [
    {"molecule": "CAPON: Carboxyl-terminal PDZ ligand of nNOS, 503 amino acid rat cytoplasmic protein", "values": [
      {"measurement": "amount of myc-PSD95 in anti-HA precipitates", "setting": "nNOS/PSD95 interaction", "value": "substantially reduces"},
      {"measurement": "direct inhibition of nNOS catalytic activity", "setting": "nNOS [1]", "value": "does not inhibit"}
    ]},
    {"molecule": "B1", "values": [
      {"measurement": "interaction with nNOS in the two-hybrid system", "setting": "nNOS [2]", "value": "specifically interacts"},
      {"measurement": "interaction with PSD93 fragment in the two-hybrid system", "setting": "PSD93", "value": "failure of CAPON to interact"},
      {"measurement": "interaction with PSD95 fragment in the two-hybrid system", "setting": "PSD95", "value": "failure of CAPON to interact"}
    ]},
    {"molecule": "B2", "values": [
      {"measurement": "binding of eNOS to immobilized GST-fusion protein", "setting": "eNOS", "value": "do not interact"},
      {"measurement": "binding of iNOS to immobilized GST-fusion protein", "setting": "iNOS", "value": "do not interact"},
      {"measurement": "binding of nNOS to immobilized GST-fusion protein", "setting": "nNOS [3]", "value": "interacts strongly"}
    ]}
  ]
}
